From doi:10.1101/2022.10.09.511515, “DNA segment capture by Smc5/6 holo-complexes” (bioRxiv, 2022)

Target: T1, Smc5(G1054C) (S. cerevisiae, UniProt Q08204 1-1093, G1054C)
T1 construct: Smc5, S. cerevisiae; subunit of the Smc5/6 hexamer; Stood in the assay as a subunit of the purified Smc5/6 hexamer (Smc5, Smc6, Nse1-4); also called Smc5 with the engineered cysteine of the Smc5/Nse4 interface
T1 sequence (looked up): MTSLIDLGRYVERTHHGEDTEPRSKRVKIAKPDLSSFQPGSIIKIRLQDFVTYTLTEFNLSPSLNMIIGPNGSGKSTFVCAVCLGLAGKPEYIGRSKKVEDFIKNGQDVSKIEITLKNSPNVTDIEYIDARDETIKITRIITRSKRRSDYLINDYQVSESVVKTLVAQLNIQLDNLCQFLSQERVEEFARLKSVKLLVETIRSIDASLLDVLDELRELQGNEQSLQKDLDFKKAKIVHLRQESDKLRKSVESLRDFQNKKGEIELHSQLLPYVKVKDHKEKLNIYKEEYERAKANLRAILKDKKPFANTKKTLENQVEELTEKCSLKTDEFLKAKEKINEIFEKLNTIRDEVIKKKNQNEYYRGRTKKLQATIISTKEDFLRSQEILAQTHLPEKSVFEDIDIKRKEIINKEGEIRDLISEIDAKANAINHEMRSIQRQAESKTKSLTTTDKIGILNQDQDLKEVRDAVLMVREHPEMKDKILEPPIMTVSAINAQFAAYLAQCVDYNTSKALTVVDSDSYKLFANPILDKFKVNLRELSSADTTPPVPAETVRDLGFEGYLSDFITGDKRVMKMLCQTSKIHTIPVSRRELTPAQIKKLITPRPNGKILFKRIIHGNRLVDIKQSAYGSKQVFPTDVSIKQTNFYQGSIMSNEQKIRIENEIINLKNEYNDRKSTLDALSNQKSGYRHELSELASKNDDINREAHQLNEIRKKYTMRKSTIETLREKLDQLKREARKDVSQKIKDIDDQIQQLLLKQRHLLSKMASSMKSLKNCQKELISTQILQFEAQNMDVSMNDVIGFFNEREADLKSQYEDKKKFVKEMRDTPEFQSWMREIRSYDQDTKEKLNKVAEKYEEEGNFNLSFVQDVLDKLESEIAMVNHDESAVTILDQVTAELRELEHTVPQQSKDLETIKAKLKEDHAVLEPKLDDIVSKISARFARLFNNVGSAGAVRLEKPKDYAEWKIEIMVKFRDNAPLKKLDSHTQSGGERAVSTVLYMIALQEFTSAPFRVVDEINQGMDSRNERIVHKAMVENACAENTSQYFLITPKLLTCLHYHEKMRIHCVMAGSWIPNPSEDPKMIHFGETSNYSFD
Assay: cross-linking; as a1 with the Nse5/6 dimer added in 1.25 x molar excess (0.625 uM) to the hexamer; SDS-PAGE, Coomassie
Conditions: both partners purified

B1: Nse5/6 dimer (complex, S. cerevisiae)
chain 1: MDGALINSVLYVSPRNGAHYFVELTEKHLLAFEMLNSMCLLENYDHVLLFLECQFGKSHNLAVIPFDIILVLFTLSTLSEYYKEPILRANDPYNTSRETLSRRALKLLQKYLAILKEFDSEQYNLYDLELLRCQFFLAIDTLTPKKQKWGFDRFRRTKSESGVTYRQNASVDPELDQAKTFKNPYRSYISCLEQRNTILGNRLLNLKLNEPGEFINMILWTLSNSLQESTPLFLSSHEIWMPLLEILIDLFSCRQDYFIQHEVAQNVSKSLFVQRLSESPLAVFFESLNTRNFANRFSEYVFLNCDYKLPSDNYATPVHPVYNGENTIVDTYIPTIKCSPLYKSQKSLALRRKLIGSCFKLLLRVPDGHRLITPRIVADDVIQGISRTLASFNDILQFKKFFMTENLSQESYFIPLLAEGTLSEILKDTQECVVILTLVENLSDGVSFCNEVIGLVKSKCFAFTEQCSQASYEEAVLNIEKCDVCLLVLLRYLLHLIGTEAILDAKEQLEMLHAIEKNDSGRRQWAKALNLGNDPPLLYPIVSQMFGVHDKSVIIE
chain 2: MGSVNSSPNEEFETVPDSQISGFDSPLIPTSVGSYFRDDDDDEKVHPNFISDPENDSLNSDEEFSSLENSDLNLSGAKAESGDDFDPILKRTIISKRKAPSNNEDEEIVKTPRKLVNYVPLKIFNLGDSFDDTITTTVAKLQDLKKEILDSPRSNKSIVITSNTVAKSELQKSIKFSGSIPEIYLDVVTKETISDKYKDWHFISKNCHYEQLMDLEMKDTAYSFLFGSSRSQGKVPEFVHLKCPSITNLLVLFGVNQEKCNSLKINYEKKENSRYDNLCTIFPVNKMLKFLMYFYSDDDNDDVREFFLKAFICLILDRKVFNAMESDHRLCFKVLELFNEAHFINSYFEIVDKNDFFLHYRLLQIFPHLQSALLRRRFSEKQGRTETIQQNIIKEFNEFFDCKNYKNLLYFILTMYGSKFIPFGPKCQVTEYFKDCILDISNETTNDVEISILKGILNLFSKIR
notes: Nse5, S. cerevisiae; a native cysteine of it cross-links to Smc5(G1054C); Nse6, S. cerevisiae; also called Nse5/6 loader; loader Nse5/6
binding result: binds
